Reference: patent WO2002045743A2 (dated 2002)

T1: S87 peptide
T1 construct: Synthetic HVR 1 peptide
T1 peptide: CTGFSKHNNMGSQQKV


How the values were obtained:
S67 peptide [1] = test: IAsys biosensor, BSA-HVR1 peptide conjugate
S85 peptide [2] = test: IAsys biosensor, BSA-HVR1 peptide conjugate
S83 peptide = test: peptide EIA, Nunc-Immuno and CovaLab plates
S82 peptide = test: peptide EIA, Nunc-Immuno and CovaLab plates
S52 peptide = test: peptide EIA, Nunc-Immuno and CovaLab plates
S67 peptide [3] = test: peptide EIA, Nunc-Immuno and CovaLab plates
S85 peptide [4] = test: peptide EIA, Nunc-Immuno and CovaLab plates
G4720 peptide = test: peptide EIA, Nunc-Immuno and CovaLab plates
DH2 peptide = test: peptide EIA, Nunc-Immuno and CovaLab plates
S54 peptide = test: peptide EIA, Nunc-Immuno and CovaLab plates
US1 peptide = test: peptide EIA, Nunc-Immuno and CovaLab plates
S87 peptide = target: T1, S87 peptide; test: peptide EIA, Nunc-Immuno and CovaLab plates
S66 peptide = test: peptide EIA, Nunc-Immuno and CovaLab plates
EH1 peptide = test: peptide EIA, Nunc-Immuno and CovaLab plates
G3895 peptide = test: peptide EIA, Nunc-Immuno and CovaLab plates
S53 peptide = test: peptide EIA, Nunc-Immuno and CovaLab plates
G4309 peptide = test: peptide EIA, Nunc-Immuno and CovaLab plates

Row | Binder | Kd (S67 peptide [1]) | Kd (S85 peptide [2]) | EIA Sample/Cutoff ratio (S/CO) (S83 peptide) | EIA Sample/Cutoff ratio (S/CO) (S82 peptide) | EIA Sample/Cutoff ratio (S/CO) (S52 peptide) | EIA Sample/Cutoff ratio (S/CO) (S67 peptide [3]) | EIA Sample/Cutoff ratio (S/CO) (S85 peptide [4]) | EIA Sample/Cutoff ratio (S/CO) (G4720 peptide) | EIA Sample/Cutoff ratio (S/CO) (DH2 peptide) | EIA Sample/Cutoff ratio (S/CO) (S54 peptide) | EIA Sample/Cutoff ratio (S/CO) (US1 peptide) | EIA Sample/Cutoff ratio (S/CO) (S87 peptide) | EIA Sample/Cutoff ratio (S/CO) (S66 peptide) | EIA Sample/Cutoff ratio (S/CO) (EH1 peptide) | EIA Sample/Cutoff ratio (S/CO) (G3895 peptide) | EIA Sample/Cutoff ratio (S/CO) (S53 peptide) | EIA Sample/Cutoff ratio (S/CO) (G4309 peptide)
1 | mAb 15H4 (antibody, V domains shown) VH: QVQLQQSGAELARPGASVKLSCKASGYTFTRYWMQWVKQKPGQGLEWIGAIYCGDGDTRFTQKFKGKATLTADKSSSTAYMQLSNLASEDSAVYYCVIYGNYYDAMDYWGQGTSVTVSS VL: DIVMTQAPLSMPVSLGDQASISGRSSQSLVHSNGNTYLHWYLQKPGQSPKLLIHKVSKRFSGVPDRFSGSGSGTDFTLKIRRVEAEDLGVYFCSQNTHVPFTFGGGTK | 110 nM | 58.5 nM | 2.3 S/CO | 3.3 S/CO | 1.9 S/CO | 25.1 S/CO | 24.4 S/CO | 14.2 S/CO | 12.9 S/CO | 3.9 S/CO | 21 S/CO | 8.9 S/CO | 24.8 S/CO | 16.9 S/CO | 7.9 S/CO |  | 
2 | mAb 2P24 (antibody, V domains shown) V domain 1: EFQLQQSGAELVRPGPLVTLSCKASGFNIKDYYMNWVKQRPEQGLEWIGRIDPKNGNALYDPKFQDKARITADTSSNTAYLQLNSLTSEATAVYYCSSGWLDYWGQGTSLAVYS V domain 2: DIVMTQSPASLAVFRGQRATISYRASKSVSTSGYSYMHWNQQKPGQPPRLLIYLVSNLESGVPARFSGSGSGTDFTLNIHPVEEEDAATYYCQHIRELTAFGGGTK | 18.1 nM | 24.3 nM | 11.5 S/CO | 16.1 S/CO | 1.4 S/CO | 24.7 S/CO | 25.6 S/CO | 24 S/CO | 18.6 S/CO | 18.9 S/CO |  |  | 12.7 S/CO | 24.8 S/CO | 25.4 S/CO | 5.7 S/CO | 1.1 S/CO
